Measured values published in patent US20260070987A1.

Target: equine FcRn (large alpha subunit p51) / equine beta-2-microglobulin complex, biotinylated (equine) (UniProt P30441)
Experiment: SPR (Biacore), pH 6

UniProt P30441, sequence (P30441 21-118, one chain of several): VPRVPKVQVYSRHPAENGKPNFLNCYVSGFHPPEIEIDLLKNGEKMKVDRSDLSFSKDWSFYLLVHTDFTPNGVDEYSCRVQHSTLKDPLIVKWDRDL

| Binder | Kd |
| --- | --- |
| equine IgG4 A426I (antibody, part only; not given: variable domains, not shown: another chain or arm of the molecule) constant: ASTTAPKVFPLASHSAATSGSTVALGCLVSSYFPEPVTVSWNSGALTSGVHTFPSVLQSSGLYSLSSMVTVPASSLKSQTYICNVAHPASSTKVDKKIVIKECNGGCPAECLQVGPSVFIFPPKPKDVLMISRTPTVTCVVVDVGHDFPDVQFNWYVDGVETHTATTEPKQEQFNSTYRVVSVLPIQHKDWLSGKEFKCKVNNKALPAPVERTISKPTGQPREPQVYVLAPHRDELSKNKVSVTCLVKDFYPTDIDIEWKSNGQPEPETKYSTTPAQLDSDGSYFLYSKLTVETNRWQQGTTFTCIVMHEALHNHYTEKSVSKSPGK | 17.4 nM |
| equine IgG4 A426K (antibody, part only; not given: variable domains, not shown: another chain or arm of the molecule) constant: ASTTAPKVFPLASHSAATSGSTVALGCLVSSYFPEPVTVSWNSGALTSGVHTFPSVLQSSGLYSLSSMVTVPASSLKSQTYICNVAHPASSTKVDKKIVIKECNGGCPAECLQVGPSVFIFPPKPKDVLMISRTPTVTCVVVDVGHDFPDVQFNWYVDGVETHTATTEPKQEQFNSTYRVVSVLPIQHKDWLSGKEFKCKVNNKALPAPVERTISKPTGQPREPQVYVLAPHRDELSKNKVSVTCLVKDFYPTDIDIEWKSNGQPEPETKYSTTPAQLDSDGSYFLYSKLTVETNRWQQGTTFTCKVMHEALHNHYTEKSVSKSPGK | 14.5 nM |
| equine IgG4 A426P (antibody, part only; not given: Variable domains, not shown: another chain or arm of the molecule) constant: ASTTAPKVFPLASHSAATSGSTVALGCLVSSYFPEPVTVSWNSGALTSGVHTFPSVLQSSGLYSLSSMVTVPASSLKSQTYICNVAHPASSTKVDKKIVIKECNGGCPAECLQVGPSVFIFPPKPKDVLMISRTPTVTCVVVDVGHDFPDVQFNWYVDGVETHTATTEPKQEQFNSTYRVVSVLPIQHKDWLSGKEFKCKVNNKALPAPVERTISKPTGQPREPQVYVLAPHRDELSKNKVSVTCLVKDFYPTDIDIEWKSNGQPEPETKYSTTPAQLDSDGSYFLYSKLTVETNRWQQGTTFTCPVMHEALHNHYTEKSVSKSPGK | 9.8 nM |
| equine IgG4 A426N (antibody, part only; not given: variable domains, not shown: another chain or arm of the molecule) constant: ASTTAPKVFPLASHSAATSGSTVALGCLVSSYFPEPVTVSWNSGALTSGVHTFPSVLQSSGLYSLSSMVTVPASSLKSQTYICNVAHPASSTKVDKKIVIKECNGGCPAECLQVGPSVFIFPPKPKDVLMISRTPTVTCVVVDVGHDFPDVQFNWYVDGVETHTATTEPKQEQFNSTYRVVSVLPIQHKDWLSGKEFKCKVNNKALPAPVERTISKPTGQPREPQVYVLAPHRDELSKNKVSVTCLVKDFYPTDIDIEWKSNGQPEPETKYSTTPAQLDSDGSYFLYSKLTVETNRWQQGTTFTCNVMHEALHNHYTEKSVSKSPGK | 18.7 nM |
| equine IgG4 A426W (antibody, part only; not given: variable domains, not shown: another chain or arm of the molecule) constant: ASTTAPKVFPLASHSAATSGSTVALGCLVSSYFPEPVTVSWNSGALTSGVHTFPSVLQSSGLYSLSSMVTVPASSLKSQTYICNVAHPASSTKVDKKIVIKECNGGCPAECLQVGPSVFIFPPKPKDVLMISRTPTVTCVVVDVGHDFPDVQFNWYVDGVETHTATTEPKQEQFNSTYRVVSVLPIQHKDWLSGKEFKCKVNNKALPAPVERTISKPTGQPREPQVYVLAPHRDELSKNKVSVTCLVKDFYPTDIDIEWKSNGQPEPETKYSTTPAQLDSDGSYFLYSKLTVETNRWQQGTTFTCWVMHEALHNHYTEKSVSKSPGK | 14.4 nM |
| equine IgG4 A426S (antibody, part only; not given: variable domains, not shown: another chain or arm of the molecule) constant: ASTTAPKVFPLASHSAATSGSTVALGCLVSSYFPEPVTVSWNSGALTSGVHTFPSVLQSSGLYSLSSMVTVPASSLKSQTYICNVAHPASSTKVDKKIVIKECNGGCPAECLQVGPSVFIFPPKPKDVLMISRTPTVTCVVVDVGHDFPDVQFNWYVDGVETHTATTEPKQEQFNSTYRVVSVLPIQHKDWLSGKEFKCKVNNKALPAPVERTISKPTGQPREPQVYVLAPHRDELSKNKVSVTCLVKDFYPTDIDIEWKSNGQPEPETKYSTTPAQLDSDGSYFLYSKLTVETNRWQQGTTFTCSVMHEALHNHYTEKSVSKSPGK | 21.1 nM |
| equine IgG4 A426R (antibody, part only; not given: variable domains, not shown: another chain or arm of the molecule) constant: ASTTAPKVFPLASHSAATSGSTVALGCLVSSYFPEPVTVSWNSGALTSGVHTFPSVLQSSGLYSLSSMVTVPASSLKSQTYICNVAHPASSTKVDKKIVIKECNGGCPAECLQVGPSVFIFPPKPKDVLMISRTPTVTCVVVDVGHDFPDVQFNWYVDGVETHTATTEPKQEQFNSTYRVVSVLPIQHKDWLSGKEFKCKVNNKALPAPVERTISKPTGQPREPQVYVLAPHRDELSKNKVSVTCLVKDFYPTDIDIEWKSNGQPEPETKYSTTPAQLDSDGSYFLYSKLTVETNRWQQGTTFTCRVMHEALHNHYTEKSVSKSPGK | 22 nM |
| equine IgG4 A426T (antibody, part only; not given: Variable domains, not shown: another chain or arm of the molecule) constant: ASTTAPKVFPLASHSAATSGSTVALGCLVSSYFPEPVTVSWNSGALTSGVHTFPSVLQSSGLYSLSSMVTVPASSLKSQTYICNVAHPASSTKVDKKIVIKECNGGCPAECLQVGPSVFIFPPKPKDVLMISRTPTVTCVVVDVGHDFPDVQFNWYVDGVETHTATTEPKQEQFNSTYRVVSVLPIQHKDWLSGKEFKCKVNNKALPAPVERTISKPTGQPREPQVYVLAPHRDELSKNKVSVTCLVKDFYPTDIDIEWKSNGQPEPETKYSTTPAQLDSDGSYFLYSKLTVETNRWQQGTTFTCTVMHEALHNHYTEKSVSKSPGK | 15.8 nM |
| equine IgG4 A426Q (antibody, part only; not given: variable domains, not shown: another chain or arm of the molecule) constant: ASTTAPKVFPLASHSAATSGSTVALGCLVSSYFPEPVTVSWNSGALTSGVHTFPSVLQSSGLYSLSSMVTVPASSLKSQTYICNVAHPASSTKVDKKIVIKECNGGCPAECLQVGPSVFIFPPKPKDVLMISRTPTVTCVVVDVGHDFPDVQFNWYVDGVETHTATTEPKQEQFNSTYRVVSVLPIQHKDWLSGKEFKCKVNNKALPAPVERTISKPTGQPREPQVYVLAPHRDELSKNKVSVTCLVKDFYPTDIDIEWKSNGQPEPETKYSTTPAQLDSDGSYFLYSKLTVETNRWQQGTTFTCQVMHEALHNHYTEKSVSKSPGK | 21.2 nM |
| equine IgG4 M428A (antibody, part only; not given: variable domains, not shown: another chain or arm of the molecule) constant: ASTTAPKVFPLASHSAATSGSTVALGCLVSSYFPEPVTVSWNSGALTSGVHTFPSVLQSSGLYSLSSMVTVPASSLKSQTYICNVAHPASSTKVDKKIVIKECNGGCPAECLQVGPSVFIFPPKPKDVLMISRTPTVTCVVVDVGHDFPDVQFNWYVDGVETHTATTEPKQEQFNSTYRVVSVLPIQHKDWLSGKEFKCKVNNKALPAPVERTISKPTGQPREPQVYVLAPHRDELSKNKVSVTCLVKDFYPTDIDIEWKSNGQPEPETKYSTTPAQLDSDGSYFLYSKLTVETNRWQQGTTFTCAVAHEALHNHYTEKSVSKSPGK | 23000 nM |
| equine IgG4 A426V (antibody, part only; not given: Variable domains, not shown: another chain or arm of the molecule) constant: ASTTAPKVFPLASHSAATSGSTVALGCLVSSYFPEPVTVSWNSGALTSGVHTFPSVLQSSGLYSLSSMVTVPASSLKSQTYICNVAHPASSTKVDKKIVIKECNGGCPAECLQVGPSVFIFPPKPKDVLMISRTPTVTCVVVDVGHDFPDVQFNWYVDGVETHTATTEPKQEQFNSTYRVVSVLPIQHKDWLSGKEFKCKVNNKALPAPVERTISKPTGQPREPQVYVLAPHRDELSKNKVSVTCLVKDFYPTDIDIEWKSNGQPEPETKYSTTPAQLDSDGSYFLYSKLTVETNRWQQGTTFTCVVMHEALHNHYTEKSVSKSPGK | 18.8 nM |
| equine IgG4 A426M (antibody, part only; not given: Variable domains, not shown: another chain or arm of the molecule) constant: ASTTAPKVFPLASHSAATSGSTVALGCLVSSYFPEPVTVSWNSGALTSGVHTFPSVLQSSGLYSLSSMVTVPASSLKSQTYICNVAHPASSTKVDKKIVIKECNGGCPAECLQVGPSVFIFPPKPKDVLMISRTPTVTCVVVDVGHDFPDVQFNWYVDGVETHTATTEPKQEQFNSTYRVVSVLPIQHKDWLSGKEFKCKVNNKALPAPVERTISKPTGQPREPQVYVLAPHRDELSKNKVSVTCLVKDFYPTDIDIEWKSNGQPEPETKYSTTPAQLDSDGSYFLYSKLTVETNRWQQGTTFTCMVMHEALHNHYTEKSVSKSPGK | 18.5 nM |
| equine IgG4 A426Y (antibody, part only; not given: variable domains, not shown: another chain or arm of the molecule) constant: ASTTAPKVFPLASHSAATSGSTVALGCLVSSYFPEPVTVSWNSGALTSGVHTFPSVLQSSGLYSLSSMVTVPASSLKSQTYICNVAHPASSTKVDKKIVIKECNGGCPAECLQVGPSVFIFPPKPKDVLMISRTPTVTCVVVDVGHDFPDVQFNWYVDGVETHTATTEPKQEQFNSTYRVVSVLPIQHKDWLSGKEFKCKVNNKALPAPVERTISKPTGQPREPQVYVLAPHRDELSKNKVSVTCLVKDFYPTDIDIEWKSNGQPEPETKYSTTPAQLDSDGSYFLYSKLTVETNRWQQGTTFTCYVMHEALHNHYTEKSVSKSPGK | 12.3 nM |
| equine IgG4 A426L (antibody, part only; not given: variable domains, not shown: another chain or arm of the molecule) constant: ASTTAPKVFPLASHSAATSGSTVALGCLVSSYFPEPVTVSWNSGALTSGVHTFPSVLQSSGLYSLSSMVTVPASSLKSQTYICNVAHPASSTKVDKKIVIKECNGGCPAECLQVGPSVFIFPPKPKDVLMISRTPTVTCVVVDVGHDFPDVQFNWYVDGVETHTATTEPKQEQFNSTYRVVSVLPIQHKDWLSGKEFKCKVNNKALPAPVERTISKPTGQPREPQVYVLAPHRDELSKNKVSVTCLVKDFYPTDIDIEWKSNGQPEPETKYSTTPAQLDSDGSYFLYSKLTVETNRWQQGTTFTCLVMHEALHNHYTEKSVSKSPGK | 17.4 nM |
| equine IgG1 T286K (antibody, part only; not given: variable domains, not shown: another chain or arm of the molecule) constant: ASTTAPKVFALAPGCGTTSDSTVALGCLVSGYFPEPVKVSWNSGSLTSGVHTFPSVLQSSGFYSLSSMVTVPASTWTSETYICNVVHAASNFKVDKRIEPIPDNHQKVCDMSKCPKCPAPELLGGPSVFIFPPNPKDTLMITRTPEVTCVVVDVSQENPDVKFNWYMDGVEVRKATTRPKEEQFNSTYRVVSVLRIQHQDWLSGKEFKCKVNNQALPQPIERTITKTKGRSQEPQVYVLAPHPDELSKSKVSVTCLVKDFYPPEINIEWQSNGQPELETKYSTTQAQQDSDGSYFLYSKLSVDRNRWQQGTTFTCGVMHEALHNHYTQKNVSKNPGK | 37.3 nM |
| equine IgG1 T286L (antibody, part only; not given: variable domains, not shown: another chain or arm of the molecule) constant: ASTTAPKVFALAPGCGTTSDSTVALGCLVSGYFPEPVKVSWNSGSLTSGVHTFPSVLQSSGFYSLSSMVTVPASTWTSETYICNVVHAASNFKVDKRIEPIPDNHQKVCDMSKCPKCPAPELLGGPSVFIFPPNPKDTLMITRTPEVTCVVVDVSQENPDVKFNWYMDGVEVRLATTRPKEEQFNSTYRVVSVLRIQHQDWLSGKEFKCKVNNQALPQPIERTITKTKGRSQEPQVYVLAPHPDELSKSKVSVTCLVKDFYPPEINIEWQSNGQPELETKYSTTQAQQDSDGSYFLYSKLSVDRNRWQQGTTFTCGVMHEALHNHYTQKNVSKNPGK | 12.3 nM |
